Test [1] concerns the target T1, murine SND1, wild type (mouse, UniProt Q78PY7 1-910).
T1 construct: Endogenous protein of murine PyMT mammary tumor cells; also called SND1 (in PyMT tumor cells); WT shRNA-resistant murine SND1
T1 sequence (looked up): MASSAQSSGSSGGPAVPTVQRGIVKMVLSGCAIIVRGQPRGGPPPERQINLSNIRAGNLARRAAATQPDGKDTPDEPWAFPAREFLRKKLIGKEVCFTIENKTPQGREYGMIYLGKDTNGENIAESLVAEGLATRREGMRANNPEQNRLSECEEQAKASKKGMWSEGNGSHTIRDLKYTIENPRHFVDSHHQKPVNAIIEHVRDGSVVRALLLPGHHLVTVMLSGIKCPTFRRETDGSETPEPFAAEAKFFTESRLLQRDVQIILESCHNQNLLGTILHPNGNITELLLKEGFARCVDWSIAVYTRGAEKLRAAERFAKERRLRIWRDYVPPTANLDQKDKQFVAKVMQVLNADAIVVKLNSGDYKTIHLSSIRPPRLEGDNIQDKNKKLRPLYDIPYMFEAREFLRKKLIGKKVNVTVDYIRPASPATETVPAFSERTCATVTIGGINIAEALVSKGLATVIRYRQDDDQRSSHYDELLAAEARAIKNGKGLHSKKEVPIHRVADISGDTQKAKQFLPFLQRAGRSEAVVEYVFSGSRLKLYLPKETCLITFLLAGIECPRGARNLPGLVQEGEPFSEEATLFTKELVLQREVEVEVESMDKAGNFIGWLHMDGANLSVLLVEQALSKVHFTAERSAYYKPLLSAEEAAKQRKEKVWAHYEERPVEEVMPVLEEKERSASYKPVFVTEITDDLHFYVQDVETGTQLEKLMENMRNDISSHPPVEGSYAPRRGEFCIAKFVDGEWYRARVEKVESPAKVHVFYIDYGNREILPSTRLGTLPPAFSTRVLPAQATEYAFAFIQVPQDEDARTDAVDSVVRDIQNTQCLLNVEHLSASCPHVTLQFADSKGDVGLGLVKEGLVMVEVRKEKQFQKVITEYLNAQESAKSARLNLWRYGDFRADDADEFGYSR
Briefly: anti-MTDH co-IP from PyMT;Mtdh-/- tumor cells reconstituted with murine MTDH, western blot. How it is done:
(FIG. 23A) Lysates from PyMT;Mtdh−/− tumor cells reconstituted with vector control, WT or mutant murine MTDH were immunoprecipitated with anti-MTDH antibody and immunoblotted for indicated proteins. Note all amino acid annotations are based on human MTDH. W394 and W401 of human MTDH correspond to W391 and W398 in murine MTDH, respectively. (FIG. 23B) Mammosphere assays were performed with PyMT;Mtdh−/− tumor cells reconstituted with indicated MTDH constructs. (FIG. 23C-E) In vivo tumor formation (FIG. 23C for tumor incidence; FIG. 23D, FIG. 23E for tumor volumes) were performed at limiting numbers using PyMT;Mtdh−/− tumor cells reconstituted with indicated WT or mutant MTDH. Statistics: (FIG. 23B) Student's t-test. Data represent mean±SEM. (FIG. 23C) Limiting dilution analysis. (FIG. 23D, FIG. 23E) Mann-Whitney test. **p<0.01, *p<0.05.
Immunoprecipitation and western blot: For in vivo immunoprecipitation (IP) experiments, cultured cells were washed in cold PBS and lysed in lysis buffer (20 mM Tris pH 7.4, 0.15 M NaCl, 1 mM EDTA, 1 mM EGTA, 1% Tx-100, 0.0025 M Na2P2O7, 1 mM β-glycerolphosphate, 1 mM Na3VO4, and 1 mM NaF) with an EDTA-free protease inhibitor mixture (Roche Applied Science) and PMSF. Cell lysates were then incubated on ice for 10 min, centrifuged, and precleared by incubating with protein A/G beads (Santa Cruz Biotechnology) for 1 h at 4° C. […]

Test [2] concerns the target T2, murine SND1 F250A (shRNA-resistant construct) (mouse, UniProt Q78PY7 1-910).
T2 sequence (looked up): T1 sequence (looked up) with F250A
Briefly: co-IP (anti-MTDH) from SND1-KD PyMT;Mtdh+/+ tumor cells reconstituted with SND1 constructs, western blot.

Test [3] has as its target T3, murine SND1 R255E (shRNA-resistant construct) (mouse, UniProt Q78PY7 1-910).
T3 sequence (looked up): T1 sequence (looked up) with R255E
Described as above.

Numbering of substitutions follows the chain as printed.

B1: murine MTDH, wild type (other, mouse, UniProt Q80WJ7 1-579, looked up)
chain: MAARSWQDELAQQAEEGSARLRELLSVGLGFLRTELGLDLGLEPKRYPGWVILVGTGALGLLLLFLLGYGWAAACAGARKKRRSPPRKREEAAPPTPAPDDLAQLKNLRSEEQKKKNRKKLPEKPKPNGRTVEVPEDEVVRNPRSITAKQAPETDKKNEKSKKNKKKSKSDAKAVQNSSRHDGKEVDEGAWETKISHREKRQQRKRDKVLTDSGSLDSTIPGIENIITVTTEQLTTASFPVGSKKNKGDSHLNVQVSNFKSGKGDSTLQVSSRLNENLTVNGGGWSEKSVKLSSQLSEEKWNSVPPASAGKRKTEPSAWTQDTGDTNANGKDWGRNWSDRSIFSGIGSTAEPVSQSTTSDYQWDVSRNQPYIDDEWSGLNGLSSADPSSDWNAPAEEWGNWVDEDRASLLKSQEPISNDQKVSDDDKEKGEGALPTGKSKKKKKKKKKQGEDNSHTQDTEDLEKDTREELPVNTSKARPKQEKACSLKTMSTSDPAEVLIKNSQPVKTLPPAISAEPSITLSKGDSDNSSSQVPPMLQDTDKPKSNAKQNSVPPSQTKSETNWESPKQIKKKKKARRET
notes: Re-expressed by lentivirus in PyMT;Mtdh-/- tumor cells; also used for the endogenous protein of PyMT;Mtdh+/+ cells (same protein); also called mouse MTDH; WT MTDH (murine form)
Take B1: the binding result in test [1] is given as “binds”; in test [2], “no binding”; in test [3], “no binding”.

The record behind these values is patent US20190336574A1 (TRUSTEES OF PRINCETON UNIVERSITY, published 2019).
